Source: US20260274959A1 (FUJIAN MEDICAL UNIVERSITY, published 2026)

T1: mouse B7-H4 on cells (MC38-mH4 and E.G7-OVA-mH4 overexpressing) (mouse, UniProt Q7TSP5 25-257)
T1 construct: whole, on cells; The species of the overexpressed protein is read from the label mH4
T1 sequence (looked up): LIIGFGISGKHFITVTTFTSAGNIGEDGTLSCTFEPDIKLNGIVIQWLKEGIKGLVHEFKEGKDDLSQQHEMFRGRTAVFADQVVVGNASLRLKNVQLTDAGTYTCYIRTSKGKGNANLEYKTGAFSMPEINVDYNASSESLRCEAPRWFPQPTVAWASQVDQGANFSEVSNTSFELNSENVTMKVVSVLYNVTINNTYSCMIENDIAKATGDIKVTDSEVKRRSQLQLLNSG

T2: Human B7-H4 protein (Sino Biological, Cat #10738-H08H-100) (human, UniProt Q7Z7D3 25-258)
T2 construct: Bought protein; also called hB7-H4 protein
T2 sequence: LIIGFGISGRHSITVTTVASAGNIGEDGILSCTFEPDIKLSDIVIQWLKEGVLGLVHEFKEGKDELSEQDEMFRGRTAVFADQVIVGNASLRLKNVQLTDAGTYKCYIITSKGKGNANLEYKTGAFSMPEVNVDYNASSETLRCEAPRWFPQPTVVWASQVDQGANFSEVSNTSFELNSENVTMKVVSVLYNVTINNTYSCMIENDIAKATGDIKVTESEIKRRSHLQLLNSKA

T3: mouse B7-H4 IgC-like domain protein (from a laboratory of Fujian Medical University) (mouse, UniProt Q7TSP5 153-241, limits assumed)
T3 construct: domain: IgC-like domain
T3 sequence (looked up): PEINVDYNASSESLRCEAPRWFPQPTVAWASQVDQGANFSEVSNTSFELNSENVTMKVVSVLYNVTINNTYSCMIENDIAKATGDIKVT

B1: Npsc-A8 single-chain antibody (scFv, V domains shown)
VH: QVQLQESGGGLMQVGGSLRLSCTASGFVFGDYGMNWVRQAPGKGLEWVSLIDTYGASTFYADSVKGRFTISRDNSKQTVFLQMDGLRADDTAMYFCAKPILMFPAFDLWGPGTMVTVSS
VL: DVVMTQSPSSLSASVGDRVTITCRASQGIRNDLAWYQKKPGKAPKRLIYAASSLQSGVPSRFSGSGYGAEFSLTISSLQPEDFATYFCLHHSQYPWTFGQGTKVDIK
notes: Soluble scFv from a phage display human natural scFv library; also called Npsc-A8 scFv; not shown: The scFv linker between the two variable domains, the domain order, and the tag detected with the anti-HA-tag antibody
B2: Npsc-A8 full-length antibody (antibody, V domains shown)
VH: B1 VH
VL: DVVMTQSPSSLSASVGDRVTITCRASQGIRNDLAWYQKKPGKAPKRLIYAASSLQSGVPSRFSGSGYGAEFSLTISSLQPEDFATYFCLHHSQYPWTFGQGTKVDIKR
notes: also called Npsc-A8 antibody

Columns and labels:
[1] = target: T1, mouse B7-H4 on cells (MC38-mH4 and …); assay: flow cytometry on MC38-mH4 cells
Method: (1) Resuspension of cells: After trypsin digestion, cells were centrifuged, the supernatant was discarded, and the cells were resuspended in PBS containing 1% (v/v) FBS and counted to adjust the concentration to 2×10⁶ cells/mL. [0126] (2) Setting controls: For a blank control, an isotype control, and samples to be tested, 100 μL of the resuspended cells in step (1) was added to each tube, so that each tube contains 2×10⁵ cells. [0127] […] A negative control tube was added with 50 μL of negative single-chain antibody, which was the monoclonal single-chain antibody that was negative in ELISA in Example 3. Tubes to be tested were respectively added with 50 μL of antibody candidates (i.e., Npsc-A8, Npsc-E7, Npsc-G10). The mixture in tubes was fully mixed, and incubated at 4° C. for 30 mins. During the incubation, the tubes were shaken every 10 mins to allow the cells to be fully reacted with the antibodies. [0128] (4) Washing of cells: An appropriate amount of PBS containing 1% (v/v) FBS was added to each tube. The tubes were centrifuged at 2000 rpm for 3 mins, and the supernatant was discarded. [0129] (5) Resuspension of cells: The cells in each tube were resuspended in 100 μL of PBS containing 1% FBS. [0130] […]

[2] = target: T2, Human B7-H4 protein (Sino Biological, …); assay: ELISA, human B7-H4 protein coated at 2 µg/mL, scFv titrated from 20 to 0.05 µg/mL
Method: 4.2 Measurement of Affinity of the Npsc-A8 scFv [0142] (1) ELISA plate was placed in a clean bench, and activated under UV irradiation for more than 30 mins. Human B7-H4 protein (Sinobiological, a catalog number: 10738-HO8H-100) was coated onto wells of the ELISA plate overnight at 4° C. at 2 μg/mL. The Npsc-A8 single-chain antibody was diluted to 20 μg/mL, 10 μg/mL, 7.5 μg/mL, 5 μg/mL, 2.5 μg/mL, 1 μg/mL, 0.5 μg/mL, 0.25 μg/mL, 0.1 μg/mL, and 0.05 μg/mL, which were respectively added to wells in 100 μL per well. [0143] (2) The remaining steps were conducted according to steps (7) to (14) in Example 3. [0144] (3) The OD450 nm value was measured. A standard curve was plotted, and the EC₅₀ value was obtained.

[3] = target: T3, mouse B7-H4 IgC-like domain protein …; assay: ELISA, protein coated at 2 µg/mL
Method: (1) A 96-well ELISA plate was placed in a clean bench, and activated under UV irradiation for more than 30 mins. The human B7-H4 protein (Sinobiological, a catalog number: 10738-HO8H-100), mouse B7-H4 protein (from a laboratory of Fujian Medical University), mouse B7-H4 IgV-like domain protein (from a laboratory of Fujian Medical University), and mouse B7-H4 IgC-like domain protein (from a laboratory of Fujian Medical University) were respectively coated onto wells of the 96-well ELISA plate at a concentration of 2 μg/mL, and incubated at 4° C. overnight. The Npsc-A8 full-length antibody protein obtained in Example 5 was diluted to 10 μg/mL with PBS buffer, and added to wells in 100 μL per well. [0165] (2) The remaining steps were conducted according to steps (6) to (13) in Example 3. 6H3 and 8H4 were used as control antibodies. 6H3 is a mouse anti-human B7-H4 IgC domain antibody, referring to patent application publication number CN 104955475 A. 8H4 is a hamster anti-human B7-H4 IgV domain antibody, referring to DOI: 10.1016/s1074-7613 (03) 00152-3. [0166] (3) OD450 nm value was measured.

[4] = target: T1, mouse B7-H4 on cells (MC38-mH4 and …); assay: flow cytometry on MC38-mH4 and E.G7-OVA-mH4 cells; the filing adds that at the same concentration it binds human tumor cells at a higher affinity than mouse tumor cells
Method: A negative control tube was added with 50 μL of negative single-chain antibody, which was the monoclonal single-chain antibody that was negative in ELISA in Example 3. Tubes to be tested were respectively added with 50 μL of antibody candidates (i.e., Npsc-A8, Npsc-E7, Npsc-G10). The mixture in tubes was fully mixed, and incubated at 4° C. for 30 mins. During the incubation, the tubes were shaken every 10 mins to allow the cells to be fully reacted with the antibodies. [0128] (4) Washing of cells: An appropriate amount of PBS containing 1% (v/v) FBS was added to each tube. The tubes were centrifuged at 2000 rpm for 3 mins, and the supernatant was discarded. [0129] (5) Resuspension of cells: The cells in each tube were resuspended in 100 μL of PBS containing 1% FBS. [0130] (6) Incubation with secondary antibody: An appropriate amount of fluorescently labeled secondary antibody was added to the isotype control tube and the test tubes, mixed thoroughly, and incubated at 4° C. in the dark for 30 mins. During the incubation, the tubes were shaken every 10 mins. [0131] (7) Washing of cells: 2 mL PBS was added to each tube, the tubes were centrifuged at 2000 rpm for 3 mins, and the supernatant was discarded. This process was conducted twice. [0132] (8) On-machine testing: Cells in each tube were resuspended in 200 μL PBS. […]

Binder	binding result [1]	EC50 [2]	binding result [3]	binding result [4]
B1	binds	2.02 µg/mL		
B2			no binding (tested: 10 µg/mL)	binds
